According to patent publication US20250326824A1:
Several values for one entry are separate records, joined by “and”; a condition that tells them apart may be missing. Identical values can stand only once. Each block holds one molecule with its values, some of them ahead of it.

Columns and labels:
Assay in all cases: cell-based or functional assay
[1] = biological target: mHTTex1-72Q-eGFP (human) (UniProt P42858)
[2] = biological target: human α-synuclein protein (human)
[3] = biological target: human α-synuclein-GFP (human)

Sequence of UniProt P42858 (P42858 other isoform, or with tags, fused parts or gaps): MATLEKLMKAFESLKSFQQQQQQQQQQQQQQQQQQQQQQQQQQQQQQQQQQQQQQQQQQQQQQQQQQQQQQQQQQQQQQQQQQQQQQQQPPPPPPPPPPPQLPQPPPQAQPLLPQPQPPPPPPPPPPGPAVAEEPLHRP

Molecule: scFv-C4-hPEST-E444A
- soluble mHTTex1-72Q-GFP by western blot (EM48/GAPDH, normalized to EV-CON) [1]: 50 to 75 % of control

Molecule: scFv-C4-hPEST-S440A
- soluble mHTTex1-72Q-GFP by western blot (EM48/GAPDH, normalized to EV-CON) [1]: 25 % of control and 0 % of control

Molecule: scFv-C4-hPEST
- soluble mHTTex1-72Q-GFP by western blot (EM48/GAPDH, normalized to EV-CON) (% relative to control) [1]: 75 to 100

Molecule: scFv-C4-hPEST-T436A
- soluble mHTTex1-72Q-GFP by western blot (EM48/GAPDH, normalized to EV-CON) (% relative to control) [1]: 75 to 100

B1: SS-435b-N77D-hP (VHH)
VHH: VQLVESGGGGLVQPGGSLRLSCVTPGGIFSDYAMGWYRQAPGKQRELVADITVSDTTRYSDPVKGRFTISRDNAKDMVYLQMNSLKPEDAAIYTCNAQKWEDRYGSSERYDYWGQGTQVTVSS
- reduction of endogenous α-synuclein by western blot relative to SS-N77K-hP control, 3×SNCA cortical cultures [2]: 40%

Further lines, results first:

- soluble mHTTex1-72Q-GFP by western blot (EM48/GAPDH, normalized to EV-CON) [1]: 50 to 75 % of control
Molecule: scFv-C4-hPEST-E428A-E430A-E431A

- reduction of α-Syn˜eGFP by western blot, recipient ST14A cells given conditioned media [3]: 20%
- reduction of endogenous synuclein by western blot, 3×SNCA cortical cultures given conditioned media [2]: 40%
- reduction of endogenous α-synuclein by western blot relative to SS-N77K-hP control, 3×SNCA cortical cultures [2]: 40%
B2: SS-PEN-N77D-PEST (VHH)
VHH: MEFGLSWLFLVAILKGVQGRQIKIWFQNRRMKWKKSRQVQLVESGGGGLVQPGGSLRLSCVTPGGIFSDYAMGWYRQAPGKQRELVADITVSDTTRYSDPVKGRFTISRDNAKDMVYLQMNSLKPEDAAIYTCNAQKWEDRYGSSERYDYWGQGTQVTVSSAHHSEDPAAAYPYDVPDYNPDFPPEVEEQDASTLPVSCAWESGMKRHRAACASASINV

- reduction of endogenous synuclein by western blot, 3×SNCA cortical cultures given conditioned media [2]: 30%
B3: SS-PEN-DB1-PEST (VHH)
VHH: MEFGLSWLFLVAILKGVQGRQIKIWFQNRRMKWKKSRAEVQLQASGGGFVQPGGSLRLSCAASGFTSWEDTMGWFRQAPGKEREFVSAISFDANDLSDTSVYYADSVKGRFTISRDNSKNTVYLQMNSLRAEDTATYYCAVASFEILLYGESLHIYWGQGTQVTVSSAAAYPYDVPDYANPDFPPEVEEQDASTLPVSCAWESGMKRHRAACASASINV
